The values below come from patent US20240083996A1, “COMPOSITION FOR PROPHYLAXIS OR TREATMENT OF IL-8 RELATED DISEASES” (Chugai Seiyaku Kabushiki Kaisha, priority 2016, published 2024).

The subject of data set [1] is cystic fibrosis. The settings on record: J Cyst Fibros. 2013; cited from earlier work.
Data set [2] concerns COPD. The settings on record: Am J Respir Crit Care Med. 2015; worsened in the placebo group; cited from earlier work.
The conditions of data set [3]: known values for commercially available antibodies (FIG. 19); cited from earlier work.
Data set [4] deals with soluble forms of FcγRIa and FcγRIIIa in human and cynomolgus monkey. Briefly: Binding to various FcγRs (BIACORE T200). The settings on record: 20° C., HBS-EP+ (FIG. 27). How it is done:
Soluble FcγRIa and FcγRIIIa in both human and cynomolgus monkey were produced in the form of His-tagged molecules by methods known to those of ordinary skill in the art. […] Next, soluble FcγRIa or FcγRIIIa was injected with a running buffer (used as a reference solution), and was made to interact with the antibodies captured onto the sensor chip. HBS-EP+ (GE Healthcare) was used as the running buffer, and HBS-EP+ was also used to dilute the soluble FcγRIa or FcγRIIIa. […] All measurements were carried out at 20° C.
(In general: Surface plasmon resonance follows binding to a sensor surface in real time, without labels.)

In the case of `O=C(Nc1ccc(Cl)c(S(=O)(=O)N2CCNCC2)c1O)Nc1cccc(F)c1Cl` [Elubrixin], the “topical neutrophil migration in cystic fibrosis” value in data set [1] was “Topical neutrophil migration was observed to be suppressed”.

With `CC[C@@H](Nc1c(Nc2cccc(C(=O)N(C)C)c2O)c(=O)c1=O)c1ccc(C)o1` [MK7123], the “pulmonary function (FEV1) in COPD patients” value in data set [2] was “pulmonary function (FEV1) was improved in the active drug group”.

Take Alemtuzumab [Campath]: in data set [3], the “frequency of ADA development in humans” value is 45%.

Daclizumab [Zenapax]: the “frequency of ADA development in humans” value in data set [3] is given as 14%.

B1: H1009/L395-F1886m: variable region of H1009/L395 with Fc variant F1886m (antibody)
heavy: QVQLVESGGGLVQPGGSLRLSCAASGFTFSDYYLSWVRQAPGKGLEWVGLIRNKDNYHTPEYSASVKGRFTISRDDSKNSLYLTMSDLKTEDTAVYYCARENHRYDVELAYWGQGTLVTVSSASTKGPSVFPLAPSSKSTSGGTAALGCLVKDYFPEPVTVSWNSGALTSGVHTFPAVLQSSGLYSLSSVVTVPSSSLGTQTYICNVNHKPSNTKVDKKVEPKSCDKTHTCPPCPAPELLGGPSVFLFPPKPKDTLMISRTPEVTCVVVDVSHEDPEVKFNWYVDGVEVHNAKTKPREEQYNSTYRVVSVLTVLHQDWLNGKEYKCKVSNKALPAPIEKTISKAKGQPREPQVYTLPPSREEMTKNQVSLTCLVKGFYPSDIAVEWESNGQPENNYKTTPPVLDSDGSFFLYSKLTVDKSRWQQGNVFSCSVLHEALHAHTTRKELSLSP
light: DIQMTQSPSSLSASVGDRVTITCRASEIIYSYLAWYQQKPGKAPKLLIYKAKTHADGVPSRFSGSGSGTDFTFTISSLQPEDIATYYCKHHFGFPRTFGQGTKVEIKRTVAAPSVFIFPPSDEQLKSGTASVVCLLNNFYPREAKVQWKVDNALQSGNSQESVTEQDSKDSTYSLSSTLTLSKADYEKHKVYACEVTHQGLSSPVTKSFNRGEC
Consider B1, for which the “binding to FcγRs (hFcγRIa, hFcγRIIIa, cynoFcγRIa, cynoFcγRIIIa)” value in data set [4] is “bind to all FcγRs”.
